Reference: patent US20250376535A1 (BEIJING STARMAB BIOMED TECHNOLOGY, published 2025)
Substitutions are numbered along the chain they refer to.

T1: recombinant human IL-22 (human, UniProt Q9GZX6 34-179)
T1 construct: also called rh-IL22
T1 sequence: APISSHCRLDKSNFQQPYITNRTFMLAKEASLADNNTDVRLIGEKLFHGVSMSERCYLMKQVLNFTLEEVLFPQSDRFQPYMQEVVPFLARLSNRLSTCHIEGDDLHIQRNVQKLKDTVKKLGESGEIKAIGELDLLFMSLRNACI

B1: MSA2 (VHH)
VHH: EVQLVESGGGLAQAGGFLRLSCADSGHSFSLYAMAWFRQTPEKEREFVAAISSSGGDTYYADSVKGRFTISRENAKNTVYLQMDSLKPGDTAVYFCAGNYYTSQLMRGMYEHWGQGTQVTVSS
notes: Llama single domain antibody with C-terminal His-tag, made in HEK293; not shown: C-terminal His-tag
B2: MSA6 (VHH)
VHH: QVQLVESGGGLVQPGGSLRLSCAASGLPSRVMGWFRQAAGKEREFVASISVSGIDTRYGDSVKGRFTISRDNTKSSLYLQMNSLKPEDTAVYYCAATDGQGNYRHWGQGTQVTVSS
notes: as for B1
B3: pgEG-SX55 (VHH, not shown: small tags and cut ends)
VHH: QVQLVESGGGLVQPGGSLRLSCAGTGLIFTTYVMGWYRQAPGKQRELVAIVTNGGGTHYADFVKGRFTISRDNAKNTVSLQMNLLKPEDTAVYYCNARHLVRPGTNDYWGQGTLVTVSS
B4: pgEG-SX56 (VHH, not shown: small tags and cut ends)
VHH: QVQLVESGGGFVQAGGSLRLSCAASGRFLSIADMDWYRRVPGKQRELVASITRAGDTALEDSVKGRFTISRDNAKNTVHLQMNSVKPEDTAVYYCRADVTRSGTPYFEVWGQGTLVTVSS
B5: pgEG-SX52 (VHH, not shown: small tags and cut ends)
VHH: QVQLVESGGGLVKAGKSLRLSCAASVSSFDTYTMGWYRQAPGKQREQVAIITPGAGTHYADSVKGRFTISRDNAKNTVYLQMSSLKLEDTAVYYCKARHRITGYDYWGQGTQVTVSS
B6: pgEG-SX39 (VHH, not shown: small tags and cut ends)
VHH: QVQVAESGGGLVQAGESLRLSCTASGSISTINAVRWYRQTPGKQREFVAYISTDGGTDYADPVKGRFTISRDNAKNTWFLQMNSLKPEDTGVYMCNVVVTPYAYWGQGTQVTVSS
B7: pgDD40-HZ-28 (VHH, not shown: small tags and cut ends)
VHH: EVQLVESGGGLVQAGGSLRLSCVASERTFTPVRMGWFRQAPGKEREIVAAITWSDGSTYYADAVKGRFTISRDNALNAVYLQIDSLKPEDTAVYVCAASTSPYSTHLQFRYWGQGTQVTVSS
B8: pgDD40-SZ-7 (VHH, not shown: small tags and cut ends)
VHH: QVQLVESGGALAQPGGSLRLSCEASATVRSVNAMAWYRQGPGKPRELVANITSGDTTYYADSVKGRFTLSREGARNTVYLQMNSLKPEDTAVYQCNIHYTSTGGIRRDYWGRGTQVTVSS
B9: pgDD40-SZ-1 (VHH, not shown: small tags and cut ends)
VHH: B8 VHH with A26T, T27N, G54D, T56A, I97V, T102W
B10: pgDD40-SZ-2 (VHH, not shown: small tags and cut ends)
VHH: B8 VHH with Q1E, V28I, L47M
B11: pgDD40-HZ-47 (VHH, not shown: small tags and cut ends)
VHH: QVQLVESGGGLVQPGGSMRLSCSASGFSISVYWMSWVRRAPGKGLEWVSNLGADGVTAQYSDSVKGRFTIARDTAKNTLYLQMNSLKPEDTAVYYCNAMTGMNPAEEEAYWGQGTQVTVSS
B12: pgDD40-HZ-15 (VHH, not shown: small tags and cut ends)
VHH: EVQLVESGGGLVQAGGSLRLSCAASGFTFDDYAIGWFRQAPGKEREGVSCLSKNVGNTYYADSVKGRFTISSDNAKNTVYLQMNSLKPEDTAVYYCAKGSGYGCYDFPRYAVWGQGTQVTVSS
B13: IL22-A3 (VHH)
VHH: QVQLVESGGGLVQPGGSLRLSCEASGRTFSSVSMGWFRQAPGKERVIVAAADWSGTTYYTGSLKGRFTISRDNAKNMVYLQMNSLKPEDTAVYYCAASDPRRSAYKYWGQGTQVTVSS
notes: Llama single domain antibody with C-terminal His-tag; not shown: C-terminal His-tag
B14: Humanized IL22-223 (VHH)
VHH: EVQLVESGGGLVQPGGSLRLSCAASGFTLNYYVMSWFRQAPGKEREGVSAISSSDGSTYYADSVKGRFTISRDNSKNTLYLQMNSLRAEDTAVYYCAADLRAYYTVPLWASEYDYWGQGTVSS
notes: not shown: C-terminal His-tag
B15: IL22-354 (VHH)
VHH: EVQLVESGGGLVQPGGSLRLSCAASGFTLDYYAIAWFRQAPGKEREGVSCISTSDGSTYYADSVKGRFTISRDNAKNTVYLQMNSLKPEDTAVYYCAADPSPFFVAPLVDYEYDYWGQGTQVTVSS
notes: as for B13
B16: IL22-223 (VHH)
VHH: QVQLVESGGGLAQPGGSLRLSCAVSGFTLNYYVIAWFRQAPGKEREGVSCISSSDGSTYYTDSVKGRFTISRDNAKNTVYLQMDSLKPEDTAVYYCAADLRAYYTVPLWASEYDYWGQGTQVTVSS
notes: as for B13

These binders were tested against T2, human serum albumin (human, UniProt P02768 25-609) (assay: BLI (Gator), His-tagged VHH on anti-His sensor, HSA 100 nM in solution).
T2 construct: also called HSA
Method: Kinetic binding analysis of MSA VHHs were performed with Gator Prime system equipped with analyze software. […] The experiments were done at 30° C. Prior to analysis, sensors were socked in Q buffer for 600 sec with shaking at 1000 rpm, and then 2 μM of HIS tagged MSA VHHs were loaded to Anti-His sensors with shaking at 400 rpm for 120 sec. Loaded sensors were transferred into Q buffer for 60 sec. Association of HSA or MSA at 100 nM was initiated and monitored for 120-180 sec with shaking at 1000 rpm, and finally dissociation in Q buffer for 120-180 sec with 1000 rpm shaking. Software V2.0 (Gator Bio) was used for data analysis. The on-rate (Kₒₙ) and off-rate (Kd) were determined by fitting of the association and dissociation phases of each sample. The mathematical model used assumes a 1:1 stoichiometry, fitting only one analyte in solution binding to one binding site on the surface. The equilibrium dissociation constant (KD), a measure for affinity, was then calculated as the ratio of Kd and Kₒₙ.

| Binder | koff [s⁻¹] | Kd [nM] | kon [M⁻¹ s⁻¹] |
| --- | --- | --- | --- |
| B1 | 0.0225 |  |  |
| B2 | 0.00125 | 20.9 | 59800 |

What follows are binders tested against T3, EGFR Fc (human, UniProt P00533 25-645) (assay: ELISA, EGFR Fc coated).
T3 construct: also called EGFR-hFc; recombinant human EGFR-Fc
Method: (§1) After four rounds of washing with PBST, the plate was incubated with detecting antibody anti-his-HRP (1:4000 dilution) 100 μl per well for one hour with shaking at 60 rpm. The plate was developed with 100 μL of TMB per well in the dark and then stopped by 50 μL of stop solution per well. […] Data was analyzed using GraphPad Prisma 9.1.

| Binder | EC50 [nM] |
| --- | --- |
| B3 | 0.237 |
| B4 | 0.044 |
| B5 | 0.105 |
| B6 | 2760 |

What follows are binders tested against T4, Human CD40 antigen (recombinant, BLI) (human, UniProt P25942 21-193) (assay: BLI, VHH-His on anti-His tips, human CD40 in solution;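 further: kinetics measured at 30 °C in PBS pH 7.2, association tracked for 200 s, then dissociation followed in PBS lacking CD40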).
T4 construct: also called rh-CD40
T4 sequence (P25942 21-193 limits assumed): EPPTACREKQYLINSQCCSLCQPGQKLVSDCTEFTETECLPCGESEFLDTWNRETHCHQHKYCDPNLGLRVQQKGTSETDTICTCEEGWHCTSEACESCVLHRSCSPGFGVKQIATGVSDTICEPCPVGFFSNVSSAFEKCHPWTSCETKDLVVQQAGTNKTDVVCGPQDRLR
Method: Bio-Layer Interferometry (BLI) kinetic binding analysis. […] Affinity measurements were performed with Gator equipped with Anti-Penta-His capture (HIS1K) biosensor tips. The assay was performed at 30° C. in 1×PBS buffer (Gibco®, PBS pH7.2). Samples were agitated at 1000 rpm. Prior to analysis, sensors were humidified for 15 min. […] Sensor data was collected throughout the experiments, processed, and analyzed using the Gator data analysis software.
Briefly, purified anti-CD40 VHH was tested for its binding capacity with HIS1K sensor tips. Tips were loaded using 20 μg/ml of anti-CD40 VHH. Loading proceeded for 300 sec resulting in capture levels of between 1.8 and 2 nm. […] Association was initiated and monitored for 200 sec, after which tips were transferred to 1×PBS buffer without CD40 protein in order to monitor dissociation.

| Binder | Kd [nM] | koff [s⁻¹] | kon [M⁻¹ s⁻¹] |
| --- | --- | --- | --- |
| B7 | 4.06 | 0.00372 | 917000 |
| B8 | < 0.001 | 1e-06 | 721000 |
| B9 | < 0.001 | 1e-06 | 779000 |
| B10 | 0.0047 | 3.59e-06 | 765000 |
| B11 | 0.469 | 0.000625 | 1.33e+06 |
| B12 | 3.12 | 0.0011 | 351000 |

The binders below were run against T5, recombinant human CD40-Fc (human, UniProt P25942 21-193) (assay: ELISA, CD40-Fc coated, VHH at 0.013 nM).
T5 construct: also called rh-CD40-Fc; CD40-hFc
T5 sequence (P25942 21-193): as the sequence (P25942 21-193 limits assumed) above
Method: (§2) After four times washing with PBST, the plate was incubated with detecting antibody anti-his-HRP (1:4000 dilution) 100 μl per well for one hour with shaking at 60 rpm. The plate was developed with 100 μL of TMB per well in the dark and then stopped by 50 μL of stop solution per well.

| Binder | OD450 |
| --- | --- |
| B7 | 0.075 |
| B8 | 0.092 |
| B9 | 0.056 |
| B10 | 0.062 |
| B11 | 0.055 |
| B12 | 0.063 |

These binders were tested against T3, EGFR Fc (assay: ELISA, EGFR Fc coated, VHH at 50 nM).
Method: as §1

| Binder | OD450 |
| --- | --- |
| B3 | 2.2 |
| B4 | 1.47 |
| B5 | 2.33 |
| B6 | 0.147 |

What follows are binders tested against T5, recombinant human CD40-Fc (assay: ELISA, CD40-Fc coated, VHH at 8 nM).
Method: as §2

| Binder | OD450 |
| --- | --- |
| B7 | 0.059 |
| B8 | 1.6 |
| B9 | 1.66 |
| B10 | 1.59 |
| B11 | 0.063 |
| B12 | 0.061 |

These binders were tested against T3, EGFR Fc (assay: ELISA, EGFR Fc coated, VHH at 0.08 nM).
Method: as §1

| Binder | OD450 |
| --- | --- |
| B3 | 0.5 |
| B4 | 1.15 |
| B5 | 1.07 |
| B6 | 0.068 |

The binders below were run against T1, recombinant human IL-22 (assay: BLI (Octet), His-tagged VHH on HIS1K tips, IL-22 in solution).
Method: Bio-Layer Interferometry (BLI), a label-free technology was used for measuring the binding kinetics of positive llama single domain antibodies. Affinity measurements were performed with Octet QKe equipped with Anti-Penta-His capture (HIS1K) biosensor tips (ForteBio®). The assay was performed at 30 C in 1×PBS buffer (Gibco®, PBS pH7.2). Samples were agitated at 1000 rpm. Prior to analysis, sensors were humidified for 15 minutes. Purified single domain antibodies was tested for its binding capacity with HIS1K sensor tips. Tips were loaded using 20 μg/ml of single domain antibodies. Loading proceeded for 300 s resulting in capture levels of between 1.8 and 2 nm. […] Association was initiated and monitored for 200 s, after which tips were transferred to 1×PBS buffer without Factor protein (Gibco, PBS pH 7.2), in order to monitor dissociation. Sensor data was collected throughout the experiments, processed, and analyzed using the Octet data analysis software 7 (Forte Bio).

| Binder | Kd [nM] | koff [s⁻¹] | kon [M⁻¹ s⁻¹] |
| --- | --- | --- | --- |
| B13 | 0.817 | 0.000405 | 496000 |
| B14 | 1.07 | 0.000547 | 509000 |
| B15 | 0.366 | 0.000184 | 503000 |
| B16 | 1.29 | 0.00036 | 278000 |

What follows are binders tested against T5, recombinant human CD40-Fc (assay: ELISA, CD40-Fc coated, VHH at 1000 nM).
Method: as §2

| Binder | OD450 |
| --- | --- |
| B7 | 0.419 |
| B8 | 1.67 |
| B9 | 1.68 |
| B10 | 1.64 |
| B11 | 0.569 |
| B12 | 0.479 |

What follows are binders tested against T3, EGFR Fc (assay: ELISA, EGFR Fc coated, VHH at 0.0032 nM).
Method: as §1

| Binder | OD450 |
| --- | --- |
| B3 | 0.125 |
| B4 | 0.409 |
| B5 | 0.196 |
| B6 | 0.075 |

Each binder was assayed against T3, EGFR Fc (assay: ELISA, EGFR Fc coated, VHH at 500 nM).
Method: as §1

| Binder | OD450 |
| --- | --- |
| B3 | 2.24 |
| B4 | 1.5 |
| B5 | 2.23 |
| B6 | 0.503 |

Each binder was assayed against T3, EGFR Fc (assay: ELISA, EGFR Fc coated, VHH at 10 nM).
Method: as §1

| Binder | OD450 |
| --- | --- |
| B3 | 2.42 |
| B4 | 1.54 |
| B5 | 2.44 |
| B6 | 0.093 |

The binders below were run against T3, EGFR Fc (assay: ELISA, EGFR Fc coated, VHH at 2 nM).
Method: as §1

| Binder | OD450 |
| --- | --- |
| B3 | 2.22 |
| B4 | 1.46 |
| B5 | 2.34 |
| B6 | 0.073 |

Each binder was assayed against T5, recombinant human CD40-Fc (assay: ELISA, CD40-Fc coated, VHH at 0.0026 nM).
Method: as §2

| Binder | OD450 |
| --- | --- |
| B7 | 0.061 |
| B8 | 0.056 |
| B9 | 0.055 |
| B10 | 0.058 |
| B11 | 0.06 |
| B12 | 0.064 |

What follows are binders tested against T5, recombinant human CD40-Fc (assay: ELISA, CD40-Fc coated, VHH at 1.6 nM).
Method: as §2

| Binder | OD450 |
| --- | --- |
| B7 | 0.062 |
| B8 | 1.01 |
| B9 | 0.866 |
| B10 | 0.94 |
| B11 | 0.056 |
| B12 | 0.062 |

These binders were tested against T3, EGFR Fc (assay: ELISA, EGFR Fc coated, VHH at 0.4 nM).
Method: as §1

| Binder | OD450 |
| --- | --- |
| B3 | 1.61 |
| B4 | 1.32 |
| B5 | 2 |
| B6 | 0.067 |

Each binder was assayed against T5, recombinant human CD40-Fc (assay: ELISA, CD40-Fc coated, VHH at 0.32 nM).
Method: as §2

| Binder | OD450 |
| --- | --- |
| B7 | 0.066 |
| B8 | 0.332 |
| B9 | 0.248 |
| B10 | 0.293 |
| B11 | 0.063 |
| B12 | 0.06 |

These binders were tested against T5, recombinant human CD40-Fc (assay: ELISA, CD40-Fc coated, VHH at 0.064 nM).
Method: as §2

| Binder | OD450 |
| --- | --- |
| B7 | 0.07 |
| B8 | 0.088 |
| B9 | 0.074 |
| B10 | 0.091 |
| B11 | 0.053 |
| B12 | 0.062 |

The binders below were run against T5, recombinant human CD40-Fc (assay: ELISA, CD40-Fc coated, VHH at 200 nM).
Method: as §2

| Binder | OD450 |
| --- | --- |
| B7 | 0.123 |
| B8 | 1.62 |
| B9 | 1.69 |
| B10 | 1.52 |
| B11 | 0.126 |
| B12 | 0.166 |

What follows are binders tested against T3, EGFR Fc (assay: ELISA, EGFR Fc coated, VHH at 0.016 nM).
Method: as §1

| Binder | OD450 |
| --- | --- |
| B3 | 0.193 |
| B4 | 0.569 |
| B5 | 0.32 |
| B6 | 0.072 |

These binders were tested against T5, recombinant human CD40-Fc (assay: ELISA, CD40-Fc coated, VHH at 40 nM).
Method: as §2

| Binder | OD450 |
| --- | --- |
| B7 | 0.067 |
| B8 | 1.67 |
| B9 | 1.72 |
| B10 | 1.72 |
| B11 | 0.066 |
| B12 | 0.076 |
